Patent US20170247476A1 (Amgen, published 2017)
Each block holds one binder with its values, some of them ahead of it.

Legend:
human CD3ε = target: T1, human CD3ε (human, UniProt P07766 22-207); experiment: FACS on T cells
T1 construct: On T cells CD3ε is part of the TCR-CD3 complex; also called T cells

HER2 = HER2 (human, UniProt P04626 23-1255); experiment: cell-based or functional assay

binding result (human CD3ε): no binding
B1: CD3ε(1-27)-aCD3-aHER2-BiFc (bispecific antibody)
chain 1: not shown
chain 2: QDGNEEMGGITQTPYKVSISGTTVILTGGGGSGGGGSGGGGSAAAEPKSSDKTHTCPPCPAPEAAGGPSVFLFPPKPKDTLMISRTPEVTCVVVDVSHEDPEVKFNWYVDGVEVHNAKTKPREEQYNSTYRVVSVLTVLHQDWLNGKEYKCKVSNKALPAPIEKTISKAKGQPREPQVYTLPPSREEMTKNQVSLTCLVKGFYPSDIAVEWESNGQPENNYDTTPPVLDSDGSFFLYSDLTVDKSRWQQGNVFSCSVMHEALHNHYTQKSLSLSPGK
notes: Non-cleavable linker between the CD3ε(1-27) fragment and the Fc

binding result (human CD3ε): no binding
B2: CD3ε(1-27)-MMP-2cs-aCD3-aHER2-BiFc (bispecific antibody)
chain 1: not shown
chain 2: QDGNEEMGGITQTPYKVSISGTTVILTGPLGIAGQAAAEPKSSDKTHTCPPCPAPEAAGGPSVFLFPPKPKDTLMISRTPEVTCVVVDVSHEDPEVKFNWYVDGVEVHNAKTKPREEQYNSTYRVVSVLTVLHQDWLNGKEYKCKVSNKALPAPIEKTISKAKGQPREPQVYTLPPSREEMTKNQVSLTCLVKGFYPSDIAVEWESNGQPENNYDTTPPVLDSDGSFFLYSDLTVDKSRWQQGNVFSCSVMHEALHNHYTQKSLSLSPGK
notes: Tested undigested, with the MMP2 cleavage site intact; also called CD3ε(1-27)-MMP-cs-aCD3-aHER2-BiFc

EC50 Cytolysis (ng/mL), +MMP2; TDCC of SKOV-3 cells with pan T cells (HER2): 0.347 ng/mL
B3: CD3ε(1-27)-MMP-2csV1-aCD3-aHER2-Xbody, digested with MMP-2 (bispecific antibody)
chain 1: not shown
chain 2: IAGQEVQLVESGGGLVQPGGSLKLSCAASGFTFNSYAMNWVRQAPGKGLEWVARIRSKYNNYATYYADSVKGRFTISRDDSKNTAYLQMNNLKTEDTAVYYCVRHGNFGNSYVSWWAYWGQGTLVTVSSGGGGSGGGGSELVMTQTPSSLSASLGDRVTISCRASQDISNYLNWYQQKPDGTVKLLIYYTSRLHSGVPSRFSGSGSGTDYSLTISNLEQEDIATYFCQQGNTLPLTFGAGTKLEIKASTKGPSVFPLAPCSRSTSESTAALGCLVKDYFPEPVTVSWNSGALTSGVHTFPAVLQSSGLYSLSSVVTVPSSNFGTQTYTCNVDHKPSNTKVDKTVGGGGSAAAEPKSSDKTHTCPPCPAPEAAGGPSVFLFPPKPKDTLMISRTPEVTCVVVDVSHEDPEVKFNWYVDGVEVHNAKTKPREEQYNSTYRVVSVLTVLHQDWLNGKEYKCKVSNKALPAPIEKTISKAKGQPREPQVYTLPPSREEMTKNQVSLTCLVKGFYPSDIAVEWESNGQPENNYDTTPPVLDSDGSFFLYSDLTVDKSRWQQGNVFSCSVMHEALHNHYTQKSLSLSPGK

EC50 Cytolysis (ng/mL), -MMP2; TDCC of SKOV-3 cells with pan T cells (HER2): 4.41 ng/mL
B4: CD3ε(1-27)-MMP-2csV1-aCD3-aHER2-Xbody (bispecific antibody)
chain 1: not shown
chain 2: QDGNEEMGGITQTPYKVSISGTTVILTGGGGSGGGGSGGGGSGPLGIAGQEVQLVESGGGLVQPGGSLKLSCAASGFTFNSYAMNWVRQAPGKGLEWVARIRSKYNNYATYYADSVKGRFTISRDDSKNTAYLQMNNLKTEDTAVYYCVRHGNFGNSYVSWWAYWGQGTLVTVSSGGGGSGGGGSELVMTQTPSSLSASLGDRVTISCRASQDISNYLNWYQQKPDGTVKLLIYYTSRLHSGVPSRFSGSGSGTDYSLTISNLEQEDIATYFCQQGNTLPLTFGAGTKLEIKASTKGPSVFPLAPCSRSTSESTAALGCLVKDYFPEPVTVSWNSGALTSGVHTFPAVLQSSGLYSLSSVVTVPSSNFGTQTYTCNVDHKPSNTKVDKTVGGGGSAAAEPKSSDKTHTCPPCPAPEAAGGPSVFLFPPKPKDTLMISRTPEVTCVVVDVSHEDPEVKFNWYVDGVEVHNAKTKPREEQYNSTYRVVSVLTVLHQDWLNGKEYKCKVSNKALPAPIEKTISKAKGQPREPQVYTLPPSREEMTKNQVSLTCLVKGFYPSDIAVEWESNGQPENNYDTTPPVLDSDGSFFLYSDLTVDKSRWQQGNVFSCSVMHEALHNHYTQKSLSLSPGK
